Test results from patent publication US20070203325A1 (published 2007).

Legend:
GST-Impα (Rch1) = GST-Impα (Rch1) (human, UniProt P52292 1-529); test: GST pull-down of in vitro translated 35S-labelled protein (0.25% NP40), autoradiography
GST-impβ = biological target: T1, GST-impβ (UniProt Q14974 1-876); test: as above
T1 construct: also called Imps
T1 sequence (Q14974 whole entry): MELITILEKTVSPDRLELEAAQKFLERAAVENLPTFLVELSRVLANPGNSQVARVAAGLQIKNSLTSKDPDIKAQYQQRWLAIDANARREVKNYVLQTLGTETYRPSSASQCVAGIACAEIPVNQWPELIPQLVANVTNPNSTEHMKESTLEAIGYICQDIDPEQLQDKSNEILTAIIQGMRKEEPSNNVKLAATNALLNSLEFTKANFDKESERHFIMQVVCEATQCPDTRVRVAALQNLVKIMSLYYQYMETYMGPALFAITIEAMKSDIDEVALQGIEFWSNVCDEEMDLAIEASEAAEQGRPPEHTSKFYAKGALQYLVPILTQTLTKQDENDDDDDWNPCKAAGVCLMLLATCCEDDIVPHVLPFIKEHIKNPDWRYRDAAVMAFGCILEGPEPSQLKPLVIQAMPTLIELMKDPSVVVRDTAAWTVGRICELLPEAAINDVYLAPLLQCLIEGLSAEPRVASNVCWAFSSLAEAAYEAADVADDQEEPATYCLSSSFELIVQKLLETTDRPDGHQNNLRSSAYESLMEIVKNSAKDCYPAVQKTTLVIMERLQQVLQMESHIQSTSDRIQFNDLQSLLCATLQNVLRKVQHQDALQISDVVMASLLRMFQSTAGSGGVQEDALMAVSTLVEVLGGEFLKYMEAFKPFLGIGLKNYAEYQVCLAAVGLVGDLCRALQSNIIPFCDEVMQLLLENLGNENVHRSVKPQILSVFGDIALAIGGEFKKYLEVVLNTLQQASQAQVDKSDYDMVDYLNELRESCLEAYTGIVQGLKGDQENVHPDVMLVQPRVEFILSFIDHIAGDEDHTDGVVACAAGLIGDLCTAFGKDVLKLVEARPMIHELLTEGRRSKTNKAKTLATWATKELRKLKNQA

B1: T7-CAT (enzyme)
chain: MEKKITGYTTVDISQWHRKEHFEAFQSVAQCTYNQTVQLDITAFLKTVKKNKHKFYPAFIHILARLMNAHPEFRMAMKDGELVIWDSVHPCYTVFHEQTETFSSLWSEYHDDFRQFLHIYSQDVACYGENLAYFPKGFIENMFFVSANPWVSFTSFDLNVANMDNFFAPVFTMGKYYTQGDKVLMPLAIQVHHAVCDGFHVGRMLNELQQYCDEWQGGA
- binding result (GST-Impα (Rch1)): no binding
- binding result (GST-impβ): no binding
